Reference: paper doi:10.1101/2021.05.31.446396 (bioRxiv, 2021)
Residue numbers refer to the chain shown, from its start. Names and notes keep the numbering of the source.

B1: D2 domain of EccCb1 (35-316 residues), wild type (domain or fragment)
chain: NPVPLNELIARDRRQPLRFALGIMDEPRRHLQDVWGVDVSGAGGNIGIGGAPQTGKSTLLQTMVMSAAATHSPRNVQFYCIDLGGGGLIYLENLPHVGGVANRSEPDKVNRVVAEMQAVMRQRETTFKEHRVGSIGMYRQLRDDPSQPVASDPYGDVFLIIDGWPGFVGEFPDLEGQVQDLAAQGLAFGVHVIISTPRWTELKSRVRDYLGTKIEFRLGDVNETQIDRITREIPANRPGRAVSMEKHHLMIGVPRFDGVHSADNLVEAITAGVTQIASQHTE
B2: D2 domain of EccCb1 (35-316 residues), S91A mutant (domain or fragment)
chain: B1 chain with S57A
B3: D2 domain of EccCb1 (35-316 residues), Q87A mutant (domain or fragment)
chain: B1 chain with Q53A
B4: D2 domain of EccCb1 (35-316 residues), K90A mutant (domain or fragment)
chain: B1 chain with K56A
B5: D2 domain of EccCb1 (35-316 residues), T92A mutant (domain or fragment)
chain: B1 chain with T58A
B6: D3 domain of EccCb1 (349-580 residues), wild type (domain or fragment)
chain: EIPIGLRETDLTPAHCHMHTNPHLLIFGAAKSGKTTIAHAIARAICARNSPQQVRFMLADYRSGLLDAVPDTHLLGAGAINRNSASLDEAVQALAVNLKKRLPPTDLTTAQLRSRSWWSGFDVVLLVDDWHMIVGAAGGMPPMAPLAPLLPAAADIGLHIIVTCQMSQAYKATMDKFVGAAFGSGAPTMFLSGEKQEFPSSEFKVKRRPPGQAFLVSPDGKEVIQAPYIEPP

Target: the molecule itself
Experiment: SEC

Row | Protein | stoichiometry N
1 | B1 | 2
2 | B2 | 2
3 | B3 | 2
4 | B4 | 2
5 | B5 | 2
6 | B6 | 2
